Data: publication PMC7553530

Biological target: recombinant human PD-L1 (rhPD-L1) ectodomain (human) (UniProt Q9NZQ7)
Experiment: SPR

UniProt Q9NZQ7, sequence (Q9NZQ7 19-238): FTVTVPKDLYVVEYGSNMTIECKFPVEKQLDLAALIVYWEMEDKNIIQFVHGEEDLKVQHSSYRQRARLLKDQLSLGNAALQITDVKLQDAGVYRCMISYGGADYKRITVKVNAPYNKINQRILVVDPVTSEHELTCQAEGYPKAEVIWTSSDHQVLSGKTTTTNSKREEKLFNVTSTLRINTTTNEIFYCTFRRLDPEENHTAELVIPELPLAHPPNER

Substance	response (RU)
MVF-PD-1 (32–50) (from UniProt P69353 288-302) (peptide)	11
MVF-PD-1 (45–64) (from UniProt P69353 288-302) (peptide)	110
MVF-PD-1 (73–90) (from UniProt P69353 288-302) (peptide)	110
MVF-PD-1 (92–110) (from UniProt P69353 288-302) (peptide)	110
